The series in a line: soluble on expression in E. coli; label from the status in PepcDB or PDB records.
Consider “METKILYQKVSADLKRRILDGDYEVGGLIPSEGELERYYQVSKITIRKAVEVLVSEGYLEKKSGIGTRVISNDLFNKLTQTQSFTATVGQQGKLTKELIKIERVPAVPALLPSESQGTMLRIKRRYLLDGKPFAVVDHYLPNTLVPTKLTALRHRSLYKILQENGQTITHFQDKFSAVTLADSERALLESQTPLAIRRERKGYDGHQRLVEFSIATYQTDVVPYQINYDVL”, for which the “soluble on expression in E. coli” value is given as “not soluble”. In the case of “VHSELTAAVGWNVWNELFTCSDDQTIHKWNMLGEPEQKVSTLDAYFTDMHWYPVSSKKTQAGGTDVFAVACTDGSVKILSRTGRVEKSIEGHKGACISLRWSYDGTALATAGEDGSVKIWSRNGMLRSTLAQADSPVYSIVWAYDCDQLCYCTGSNVVIKSLSSNAKQNAWKAHDGVVLKVDWSPINHLIITGGEDCKYKVWDSFGRLLFQSGLFDYPVTSVAWAPSGELFAVGGFNTLQLCDRMGWAYSKIHLNDTGSIMTLSWTADSTQLA” it was “not soluble”; in that of “SLKSLNHISLLCRSVEESISFYQNVLGFLPIRRPDSFDFDGAWLFGHGIGIHLLQSPEPEKLLKKTEINPKDNHISFQCESMEAVEKKLKEMEIEYVRAVVEEGGIQVDQLFFHDPDAFMIEICNCDSLPVIPLAGEMARSCSRLNIRQLVQPTQIHEG”, “soluble”; in that of “VNCVFITPDKMDGKRISYDYVVQQYEIQRLLQRRPLITLIDICKEITSGIRVKKEYYTDKNGYKIIAPGDIRNEVIYINELKVVQPEVVREKDIINNGDILITASGKSGQVIYVNEVLEGCVVTSDIIKITLRDRDKGIRLYKFLKSSIGQMLLNSIKIGILNKIFVEDVENLLIPEDFDTYQEDCSDDSTVYAEAEKLYRSAENIFYRVFDYKGEKKNLKHFYVTEYLDSHRLDPEYYSNFYTELYRVIHKNFDDVKWEELGELVEIKKADKPEISKNQKVKYFLLADIDPNFSIIKETHEDFYGNLSNRMRYIVRRGEIVTAKGGSATGTKGHATALITEKFDGLVTTDALYNLVPRRINPYYLLFLFKQPIILNQVNMFTKGTLYKLIQRNDFEKIKIPRLESSLEEQIVDKMMNYLSVLQNKF”, “not soluble”. “MSLITLKELAKQLNVSVSTVSKALHDAKDISEGTKKRIKEAAQLYNYRPNKTALALKVNKTNTIGVIIPDILNPFFAQVLHGIEDYATEHNYDTIVCVSHDQLKKEAQSLDLLMQGRVDGFILSLSSESLAQDNFLHIDQIALNKKGLVLFDRTTDQVDCDKVVIDDKRSVYDATRILISKGKTKIAFVSNIEDLNLGQLRKEGYENALRDHGIEVNYSLNLDLTGSSDPHGLIKAFLSMQEIDGVISADNTSSLMFKSILKSERPDTNSEIPLIGFSDEKNSLLSYPRIDYIDQNAMKIGSKAAELLINRLESKDLTSKPITFEMPTEIHLYEGHHHHHH”: the “soluble on expression in E. coli” value is “soluble”. In the case of “MRLFAIVLLCLVLATCASHIPSARVTHPASAGLPGLQGFQLMPPEQAVDALPYRNRYPLINAELRQGLAAHGYHESATPQFRVYYWLALRDAPLEFRPDLPPTSGMGPYLAIHRLRDETGTLRVRLVDLEERVLWEGMVSTGLSPARANPEQLELAVGALLRQLPRAR” it was “not soluble”; in that of “PIVGRIIHIENQQLNEYTGNYSSFENQRAQKMMLQQAMFEKQQKQMSHMQSYIDRFRYKASKARQAQSRIKALERMEKVLPAQFDNPFSFEFRQPAALPNPIMMMDDVSAGYGDNLILEKIRLNLVP”, “not soluble”. In the case of “MEQQLNLGHLLTAARLLDIGALDISSLDLGALTSTSSSPGSSSPAMFDLSNESELRSLFCGKLKVDKKQSSCASNASTSSQPYCSSPPARKSSKHSRTAHNELEKTRRANLRGCLETLKMLVPCVSDATRNTTLALLTRARDHIIELQDSNAAQMKKLNDLRDEQDELVAELAQLQADEEVAQATSQACQTLSQSRPESRASSFTSTSSRDSPCYLEYSPSSKPMDSHKPTIIDLYAEGLIPRGPITFPRPLVYPHNVFDLMNLPPTPFDVSQFLPINLQV” it was “not soluble”. For the sequence “MSLIKLVAIDLDGTLLNSQKEISLRNKQALMAAKQAGVKVVICTGRPLAAIGPYLEELGLQDEGDYSITFNGGLVQKNDTGAIIEKTLMPLEAIHELYQLATTLNMPFDVLSDEVVMQLPSAPNYPSIYSSLNKLLTFESYKLEELTPNRIYNKVVVAIDEAYLNERIKEIPASFYERFEIIKTRNNLLEFMPKGITKAYGISLLAKDLGIRAEEIMTLGDEENDLPMIEYAGLGVAMANAIPLVKEAADVVTDTNDQDGVAKAVEKYILTPLEGGEGHHHHHH”, the “soluble on expression in E. coli” value is given as “soluble”. In the case of “QEKSARDLMIAVDLSGSMAVEDFTLPIATNELTNRAKNDTDSSATKSSTNDTGKGEKVNRLVAVKHVLNAFVKSREHDRLGLILFGDAPYLQAPFTDDIATWQALLNESDIGMAGQSTAFGDAIGLAISVFQQSDTQNRVLIVLTDGNDTASKVPPVEAAKVAAARDIKIYTIAIGDPSAVGEEKVDLEVLQAMAEITQGKSFQALNSEELLKVYAEI” it was “not soluble”; in that of “GPGSMSRQQQAQELQKQWETDPRWKGIKRAFTAEDVVRLRGSIQQEHTLAKRGAEKLWTLINNEPFVNALGALTGNQAMQQVKAGLKAIYLSGWQVAGDANVAGEMYPDQSLYPANSVPLVVKRINNTLTRADQIQWSEGKNPGDEGYVDFFAPIVADAEAGFGGVLNAFELMKAMIEAGASGVHFEDQLASVKKCGHMGGKVLVPTREAVAKLTAARLAADVMGTPTVLVARTDAEAADLITSDIDDNDKPYLTGERTVEGFFRTKPGLEQAISRGLAYAPYADLIWCETGKPDLEYAKKFAEAIHKQFPGKLLSYNCSPSFNWKKNLDDATIAKFQKELGAMGYKFQFITLAGFHALNYSMFNLAHGYARTQMSAFVELQQAEFAAADKGFTAVKHQREVGTGYFDAVTQTVEREASTTALHGSTEDEQFFDGQKVA”, “soluble”; in that of “MAQFLEKATSALSEAKESVTSTAESVTASLTDAEKTVNQTARSTLTDAETTVAASVETVKTEAAAAPDKASGVSTQAKDAVDKAFSRGIEGAKSLLQTFEAKSSDISSKLVGGVTNLVSGASSSTVANRDLPVSTDNQPLLASGEKTPWWKNCCGVLDLFKKDT”, “soluble”.

On to “MKIAVVAANGKAGQLITKEAVERSLDVTAIVRSENKTVAHQVIQKDLFDLTKEDIAPFDVIVDAFGQMNKDKLNEHSQSLEHLSNLVSDSQKRLIIIGGAGSLYVDKAHTERLIDSPDMPEEVKPISMAQVKTFEEIKERDDVQWTFVCPAPDFQFDGEKTGAYKVSDDEVIGTHVSYADFAKAIVDEAMNPEHIQSRFAVFAKLEHHHHHH”, for which the “soluble on expression in E. coli” value was “soluble”. To “MIPKAFDGVKLLQFSDLHLGHYDSLERFYRIINQINKLQPDIVVFTGDLLHEANRYPHTEEVADALASIRAPLGKFSVYGNHDHGGYGTDIYRRLMERAGFRVLVNEHALVRRGQERIAVAGGDDMMLGQPDWAKMTSGIPASTYTIALVHEPDGALETCRYPIHVQLSGHSHGGQIQLPFIGPLITPPLSERYYEGFYHVGGLVLYVNRGLGTTRVPLRFFAPPELTVFSLIHRLEHHHHHH” belongs “not soluble”. In the case of “MGSDKIHHHHHHMTLDSIERAIADIANGKPVVVVDSEDRENEGDLIFAADKATPELVAFMVRYSSGYICASLTSEECDRLQLPPMTSHNEDARGTAYAVTVDANTGTTGISATSRADTLRKLADSQFGPQDFTRPGHVVPLRAKAGGVLERAGHTEAAVDLARMAGLNPAGVLCEVVSEDDPTDMARAPELRRFADRHDLALISIEQLIEWRRRYELLVERAVSTQLPTEFGRFTAVGYRGIVDGVEHIALVAGDITSDEGKDVLLRVHSECLTGDVLGSRRCDCGPQLQASLRAISERGRGVVVYLRGHEGRGIGLLHKLQAYHLQDEGADTVDANKALGLPVDARNYSVAAHILRDLGVQSVCLLTNNPEKSLELERYGVKVTGREPVKVEVHEDNIRYLTTKRDRMNHDLPWIAEYKKEQS” it was “not soluble”; in that of “MGSDKIHHHHHHMIQNTFNIAGGVARNPLVRLAAPITATISAGEHIAIVGPNGGGKSLFVDTLIGKYPLREGTLQYDFSPAATQTVYDNVKYIAFRDTYGAADANYYYQQRWNAHDQDEAPDVREMLGEIKDEQLKQELFELFRIEPMLDKKIILLSSGELRKFQLVKTLLTAPRVLIMDNPFIGLDAPTRELLFSLLDRLTKMSSVQIILVLSMLDDIPSFITHVIPVDKMTVYPKMEREAYLEAFRSRDAAVSFDELQQRIVNLPYDGNNYDSDEVVKLNKVSIRYDDRTILKDLDWTVRRGEKWALSGENGAGKSTLLSLVCADNPQSYACDISLFGRKRGTGESIWEIKKHIGYVSPEMHRAYLKNLPAIEIVASGLHDSIGLYKRPQPEQMAICEWWMDIFGIAELKDNPFLQLSSGEQRLALLARAFVKDPELLILDEPLHGLDTYNRRRVKKIIEAFCHRKDKTMIMVTHYESELPGTITDRIFLKRNR”, “not soluble”; in that of “VFALSNNLNRVNACMDGFLARIRSHVDAHAPELRSLFDTMAAEARFARDWLSEDLARLPVGAALLEVGGGVLLLSCQLAAEGFDITAIEPTGEGFGKFRQLGDIVLELAAARPTIAPCKAEDFISEKRFDFAFSLNVMEHIDLPDEAVRRVSEVLKPGASYHFLCPNYVFPYEPHFNIPTFFTKELTCRVMRHRIEGNTGMDDPKGVWRSLNWITVPKVKRFAAKDATLTLRFHRAMLVWMLERALTDKEFAGRRAQWMVAAIRSAVKLRVHHLAGYVPATLQPIMDVRLTKR”, “not soluble”. For the sequence “HPKLVSSTPAEGSEGAAPAKIELHFSENLVTQFSGAKLVMTAMPGMEHSPMAVKAAVSGGGDPKTMVITPASPLTAGTYKVDWRAVSSDTFPITGSVTFKVK”, the “soluble on expression in E. coli” value is reported as “soluble”. In the case of “SDEFDALRIKWATLLTGGPALDPADSDIAARTDKLAQDANDYWEDMDLSSSRTYIWYALRGNGTSDNVNAVYERLRTMALAATTVGSSLYGNADLKEDILDALDWLYVNSYNSTRSRSAYNWWHWQLGIPMSLNDIAVLLYDDISAARMATYMDTIDYFTPSIGLTGANRAWQAIVVGVRAVIVKDAVKLAAARNGLSGTGIFPYATGGDGFYADGSFVQHTTFAYTGGYGSSVLETTANLMYLLSGSTWSVSDPNQSNVWQWIYEAYRPLLYKGAMMDMVRGREISRSYAQDHAVGHGIVASIVRLAQFAPAPHAAAFKQIAKRVIQEDTFSSFYGDVSTDTIRLAKAIVDDPSIAPAAAPNLYKQYAAMDRAVLQRPGFALGLALYSTRISSYESINSENGRGWYTGAGATYLYNQDLAQYSEDYWPTVDAYRIPGTTVASGTPIASGTGTSSWTGGVSLAGQYGASGMDLSYGAYNLSARKSWFMFDDEIVALGSGISSTAGIPIETVVDNRKLNGAGDNAWTANGAALSTGLGVAQTLTGVNWVHLAGNTADGSDIGYYFPGGATLQTKREARTGTWKQINNRPATPSTAVTRNYETMWIDHGTNPSGASYGYVLLPNKTSAQVGAYAADPAIEIVVNTSGVQSVKEKTLGLVGANFWTDTTQTADLITSNKKASVMTREIADERLEASVSDPTQANNGTIAIELARSAEGYSADPGITVTQLAPTIKFTVNVNGAKGKSFHASFQLG” it was “soluble”; in that of “DYMRFALKGKQGKGMKMPEGVVSSNGEYYMKERMVTDPGLTLDNSGIAPQPSRRAKEDDGGAAEGGRQAADDEVRQDMQETPVLPSNTGSKQQQLDSLF”, “not soluble”; in that of “GSHMASMFGKLREKLKSFVKRVEEEVEKEEEEVEKKGLLDRILTVEIKEKDVDKALDELEIDLLEADVALEVVDALREKIKQKLVGKKVRIGTDKGKIIEEAVKEAVSEILETSRRIDLIEEIRKAEKPYVIMFVGFNGSGKTTTIAKLANWLKNHGFSVVIAASDTFRAGAIEQLEEHAKRIGVKVIKHSYGADPAAVAYDAIQHAKARGIDVVLIDTAGRSETNRNLMDEMKKIARVTKPNLVIFVGDALAGNAIVEQARQFNEAVKIDGIILTKLDADARGGAALSISYVIDAPILFVGVGQGYDDLRPFEKEWFLERIFGEENA”, “soluble”.

(Values after the DeepSol protein solubility set.)
